Tests used:
[1] = molecular target: T1, Human epididymis protein 4 (HE4) (human, UniProt Q14508 31-124); experiment: thermofluorimetric analysis (SYBR Gold); 1/125 artificial urine; HE4 up to 800 nM; 100 nM DNA, 0-800 nM HE4, 1/125 diluted artificial urine, 1x SYBR Gold, protein buffer (10.1 mM Na2HPO4, 137 mM NaCl, 2.7 mM KCl, 1.8 mM KH2PO4, 1 mM MgCl2); pH; settings: protein: commercial; tags: 6xHis; label: SYBR Gold dye (non-covalent)
T1 sequence: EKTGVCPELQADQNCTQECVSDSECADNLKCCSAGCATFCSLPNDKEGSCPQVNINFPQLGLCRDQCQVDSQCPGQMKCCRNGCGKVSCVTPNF

[2] = molecular target: T1, Human epididymis protein 4 (HE4); experiment: thermofluorimetric analysis (SYBR Gold); preliminary data, urine; 100 nM DNA, 0-800 nM HE4, 1/125 diluted artificial urine, 1x SYBR Gold, protein buffer (10.1 mM Na2HPO4, 137 mM NaCl, 2.7 mM KCl, 1.8 mM KH2PO4, 1 mM MgCl2); pH; settings: protein: commercial; tags: 6xHis; label: SYBR Gold dye (non-covalent)

Binder	binding result [1]	binding result [2]
Scramble aptamer DNA (ssDNA) DNA: ATCGCGTCCGTCAATTACCTACGCTGCACCACTTATGAGCCGGTATCGCCATCCGTCAACTCACGCCTCC	no binding	
AHE2 (ssDNA) DNA: TCGCACATTCCGCTTCTACCGCCAACATCGTACTCCATCTGCCACCCCCACGTAAGTCCGTGTGTGCGAA		no binding

Source: publication PMC9856783, “Identification and Characterization of Aptamers Targeting Ovarian Cancer Biomarker Human Epididymis Protein 4 for the Application in Urine”
